Reference: paper PMC4470572 (Nature communications, 2014)

Biological target: the molecule itself
Assay: single-molecule photobleaching step analysis

B1: DIC1-eGFP-3xFLAG (dynein intermediate chain 1) (natural protein, mouse, UniProt O88485 1-628, looked up)
chain: MSDKSDLKAELERKKQRLAQIREEKKRKEEERKKKEADMQQKKEPVQDDSDLDRKRRETEALLQSIGISPEPPLVPTPMSPSSKSVSTPSDAGSQDSGDLGPLTRTLQWDTDPSVLQLQSDSELGRRLHKLGVSKVTQVDFLPREVVSYSKETQTPLATHQSEEDEEDEEMVEPKIGHDSELENQEKKQETKEAPPRELTEEEKQQILHSEEFLIFFDRTIRVIERALAEDSDIFFDYSGRELEEKDGDVQAGANLSFNRQFYDEHWSKHRVVTCMDWSLQYPELMVASYSNNEDAPHEPDGVALVWNMKFKKTTPEYVFHCQSSVMSVCFARFHPNLVVGGTYSGQIVLWDNRSHRRTPVQRTPLSAAAHTHPVYCVNVVGTQNAHNLITVSTDGKMCSWSLDMLSTPQESMELVYNKSKPVAVTGMAFPTGDVNNFVVGSEEGTVYTACRHGSKAGIGEVFEGHQGPVTGINCHMAVGPIDFSHLFVTSSFDWTVKLWTTKHNKPLYSFEDNADYVYDVMWSPVHPALFACVDGMGRLDLWNLNSDTEVPTASVAIEGASALNRVRWAQGGKEVAVGDSEGRIWIYDVGELAVPHNDEWTRFARTLVEIRANRADSEEEGAVELAA
stoichiometry N: 2
